First the molecules themselves.
B2: mouse Plexin-B1 (20–535)-6xHis (domain or fragment, UniProt Q8CJH3 20-535, looked up)
chain: LRSPLPAAFTANGTHLQHLARDPTTGTLYVGATNFLFQLSPGLQLEAVVSTGPVNDSRDCLPPVIPDECPQAQPTNNPNQLLLVSPEALVVCGSVHQGICELRSLGQIRQLLLRPERPGDTQYVAANDPAVSTVGLVAQGLVGEPLLFVGRGYTSRGVGGGIPPITTRALRPPDPQAAFSYEETAKLAVGRLSEYSHHFVSAFVRGASAYFLFLRRDLKAPSRAFRAYVSRVCLQDQHYYSYVELPLACQGGRYGLIQAAAVATSKEVARGDVLFAAFSSVAPPTVDWPLSASTGASGTSVLCAFPLDEVDQLANYTRDACYTREGRAENGTKVADIAYDVLSDCAQLPVDTPDAFPCGSDHTPSPMVSCVPLEATPILELPGVQLTAVAVTMEDGHTIAFLGDSQGQLHRVYLGPGRSAAPYSKQSIQPGSPVNRDLTFDGTFEHLYVATQTTLVKVPVAPCAQHLDCDSCLAHRDPYCGWCVLLGRCSRRSECSRDQGPEQWLWSFQPELGCLR
notes: mouse Plexin-B1, sema and PSI1 domains (D1-2); For crystallography the N-linked glycans were trimmed to a single N-acetylglucosamine with EndoH; also called mPlexin-B1; mouse Plexin-B1 domains 1 and 2; source: Expi293F, secreted, purified (Excel HisTrap, Superdex 200)

Like-named read-outs stand apart in the source and are kept apart here.

The target of assay [1] is B2. The assay can be described thus: crystal structure; VHH15:mPlexin-B1 complex, EndoH-treated; 8% PEG 8000, 0.1 M sodium citrate pH 5.0, 1% dextran sulphate, 18 °C. The following applies: both partners purified.
Assay [2] addresses T1, VHH15-Fc (huarizo).
T1 construct: VHH cloned upstream of the Fc of human IgG1 (vector pHCMVi-Script HuIgG1 Fc); source: Expi293F, transfected; culture supernatant, and purified (HiTrap MabSelect, Superdex 200); not shown: Fc (human IgG1), C-terminal, kept
The assay is described as follows: BLI; Octet RED384, 25 °C, 1× Kinetics buffer; purified VHH-Fc captured on Protein G biosensors, mouse Plexin-B1 in solution (VHH14-Fc: 10-3.75 nM, 1800 s association, 7200 s dissociation; VHH15-Fc: 160-10 nM, 600 s, 510 s); global 1:1 fit. The following applies: both partners purified.

The target of assay [3] is T1, VHH15-Fc. The assay can be described thus: BLI; first phase of the competition assay: 100 nM VHH-Fc on biotinylated murine Plexin-B1 held on streptavidin biosensors; by the order of the results the VHH-Fcs were still in supernatants. To be noted: one partner purified. For orientation: In BLI a coated tip is dipped into the sample, and binding shifts an interference pattern.

Assay [4] addresses T2, VHH14-Fc (huarizo).
T2 construct: VHH cloned upstream of the Fc of human IgG1 (vector pHCMVi-Script HuIgG1 Fc); source: Expi293F, transfected; culture supernatant, and purified (HiTrap MabSelect, Superdex 200); not shown: Fc (human IgG1), C-terminal, kept
The description is as above. The following applies: one partner purified.

Assay [5] concerns the target T3, Recombinant Sema4D (1–677) with C-terminal 6xHis-tag (human, UniProt Q92854 22-677).
T3 construct: signal peptide in the construct; human Sema4D, residues 1-677 cloned in pcDNA5 and expressed as a secreted protein; also called human Sema4D; source: Expi293F, purified as the Plexin-B1 constructs (Excel HisTrap, Superdex 200)
T3 sequence (looked up): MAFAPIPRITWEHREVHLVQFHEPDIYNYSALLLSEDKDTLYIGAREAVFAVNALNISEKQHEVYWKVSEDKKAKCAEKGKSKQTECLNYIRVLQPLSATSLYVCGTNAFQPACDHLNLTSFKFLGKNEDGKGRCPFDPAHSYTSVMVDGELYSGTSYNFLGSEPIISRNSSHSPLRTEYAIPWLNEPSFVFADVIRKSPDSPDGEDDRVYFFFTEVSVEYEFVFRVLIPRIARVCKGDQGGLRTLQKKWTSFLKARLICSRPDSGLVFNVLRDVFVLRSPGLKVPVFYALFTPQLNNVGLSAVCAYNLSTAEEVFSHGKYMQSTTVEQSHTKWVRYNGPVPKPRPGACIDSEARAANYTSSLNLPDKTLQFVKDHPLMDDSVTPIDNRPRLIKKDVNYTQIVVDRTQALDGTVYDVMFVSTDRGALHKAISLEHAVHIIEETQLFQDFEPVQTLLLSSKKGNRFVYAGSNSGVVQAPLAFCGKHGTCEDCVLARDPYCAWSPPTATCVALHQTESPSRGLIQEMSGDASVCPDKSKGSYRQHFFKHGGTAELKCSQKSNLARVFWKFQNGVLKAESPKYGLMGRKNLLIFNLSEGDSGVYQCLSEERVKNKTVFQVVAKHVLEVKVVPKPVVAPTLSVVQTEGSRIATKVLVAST
The assay is described as follows: BLI; competition assay, Octet RED384, 1× Kinetics buffer; biotinylated murine Plexin-B1 on streptavidin biosensors, 10 μg/ml human Sema4D with or without 100 nM VHH-Fc bound beforehand. The following applies: both partners purified.

Assay [6] addresses B2.
Assay [7] deals with B2. The assay can be described thus: crystal structure; VHH14:VHH15:mPlexin-B1 ternary complex; 15% PEG 6000, 0.1 M sodium citrate pH 5.5, 3% dextran sulphate, 18 °C. The following applies: both partners purified.
Assay [8] deals with T1, VHH15-Fc. The assay can be described thus: BLI; supernatants containing VHH-Fcs tested against mouse and human Plexin-B1. The following applies: one partner purified.
Assay [9] has as its target T2, VHH14-Fc. The assay is described as above. The following applies: one partner purified.

For orientation: Kd means a measure of binding affinity in units of concentration. Lower therefore signals tighter binding.

B1: VHH15-6xHis (VHH)
VHH: QVQLQESGGGLVQPGGSLRLSCAASGFRLDYYAIGWFRQAPGKEREGVLCISSSGGSINYADSVKGRFTISRDNAKNTVYLQMNSLKPEDTAVYYCGASSYNTQRAECYGMDYWGKGTQVTVSA
notes: VHH15; not shown: His6, C-terminal, kept
Turning to B1, the binding result in assay [1] was “binds”.
For B2, in the assay with VHH15-Fc [2], the Kd was 37.5 nM.

B3: biotinylated mouse Plexin-B1 (20–535)-Avi-6xHis (domain or fragment, UniProt Q8CJH3 20-535, looked up)
chain: LRSPLPAAFTANGTHLQHLARDPTTGTLYVGATNFLFQLSPGLQLEAVVSTGPVNDSRDCLPPVIPDECPQAQPTNNPNQLLLVSPEALVVCGSVHQGICELRSLGQIRQLLLRPERPGDTQYVAANDPAVSTVGLVAQGLVGEPLLFVGRGYTSRGVGGGIPPITTRALRPPDPQAAFSYEETAKLAVGRLSEYSHHFVSAFVRGASAYFLFLRRDLKAPSRAFRAYVSRVCLQDQHYYSYVELPLACQGGRYGLIQAAAVATSKEVARGDVLFAAFSSVAPPTVDWPLSASTGASGTSVLCAFPLDEVDQLANYTRDACYTREGRAENGTKVADIAYDVLSDCAQLPVDTPDAFPCGSDHTPSPMVSCVPLEATPILELPGVQLTAVAVTMEDGHTIAFLGDSQGQLHRVYLGPGRSAAPYSKQSIQPGSPVNRDLTFDGTFEHLYVATQTTLVKVPVAPCAQHLDCDSCLAHRDPYCGWCVLLGRCSRRSECSRDQGPEQWLWSFQPELGCLR
modifications: biotin on the Avi-tag (BirA, in vitro)
notes: the Avi-tag stands between the C terminus of the fragment and the 6xHis-tag; source: Expi293F, secreted, purified as the unmodified version; biotinylated in vitro with BirA
Regarding B3, the binding result in the assay with VHH15-Fc [3] and in the assay with VHH14-Fc [4] was “binds” in each case.

B4: biotinylated mouse Plexin-B1 (20–535)-Avi-6xHis (domain or fragment, UniProt Q8CJH3 20-535, looked up)
chain: LRSPLPAAFTANGTHLQHLARDPTTGTLYVGATNFLFQLSPGLQLEAVVSTGPVNDSRDCLPPVIPDECPQAQPTNNPNQLLLVSPEALVVCGSVHQGICELRSLGQIRQLLLRPERPGDTQYVAANDPAVSTVGLVAQGLVGEPLLFVGRGYTSRGVGGGIPPITTRALRPPDPQAAFSYEETAKLAVGRLSEYSHHFVSAFVRGASAYFLFLRRDLKAPSRAFRAYVSRVCLQDQHYYSYVELPLACQGGRYGLIQAAAVATSKEVARGDVLFAAFSSVAPPTVDWPLSASTGASGTSVLCAFPLDEVDQLANYTRDACYTREGRAENGTKVADIAYDVLSDCAQLPVDTPDAFPCGSDHTPSPMVSCVPLEATPILELPGVQLTAVAVTMEDGHTIAFLGDSQGQLHRVYLGPGRSAAPYSKQSIQPGSPVNRDLTFDGTFEHLYVATQTTLVKVPVAPCAQHLDCDSCLAHRDPYCGWCVLLGRCSRRSECSRDQGPEQWLWSFQPELGCLR
modifications: biotin on the Avi-tag (BirA, in vitro)
notes: as for B3
With B4, in assay [5], the binding result is given as “binds”.

B5: VHH17 (VHH)
VHH: QVQLQESGGGLVQAGGSLRLSCVAAGIPFSAYAMSWYRQAPGKQRDHIATVSSGGTTYYADSVKGRFTISRDNAKNTVYLQMNSLKPEDTAVYFCNTEFALGNWGQGTQVTVSA
On to B5, for which the binding result in [6] is given as “binds”.

B6: VHH16 (VHH)
VHH: QVQLQESGGDLVQAGGSLRLSCEVSGSSFDIYHWAWYRQVPGKEREWVATAYSAGTTHYADSVKGRFTISRDNAKNTVYLQMNSLIPEDTAVYFCNANIYWGRGTQVTVSA
With B6, the binding result in assay [6] was “binds”.

B7: VHH14-6xHis (VHH)
VHH: QVQLQESGGGLVQAGGSLRLSCAASGFTLGYYAIGWFRQAPGKEREEVSCINASGGSTFYEDSVKGRFTISRDNAKNTVFLQMNRLKPEDTAVYYCAAACEVVAVGYWGQGTQVTVSA
notes: VHH14
B7: the binding result in [7] is “binds”.

B8: human Plexin-B1 (20–535) (domain or fragment, UniProt O43157 20-535, looked up)
chain: LQPLPPTAFTPNGTYLQHLARDPTSGTLYLGATNFLFQLSPGLQLEATVSTGPVLDSRDCLPPVMPDECPQAQPTNNPNQLLLVSPGALVVCGSVHQGVCEQRRLGQLEQLLLRPERPGDTQYVAANDPAVSTVGLVAQGLAGEPLLFVGRGYTSRGVGGGIPPITTRALWPPDPQAAFSYEETAKLAVGRLSEYSHHFVSAFARGASAYFLFLRRDLQAQSRAFRAYVSRVCLRDQHYYSYVELPLACEGGRYGLIQAAAVATSREVAHGEVLFAAFSSAAPPTVGRPPSAAAGASGASALCAFPLDEVDRLANRTRDACYTREGRAEDGTEVAYIEYDVNSDCAQLPVDTLDAYPCGSDHTPSPMASRVPLEATPILEWPGIQLTAVAVTMEDGHTIAFLGDSQGQLHRVYLGPGSDGHPYSTQSIQQGSAVSRDLTFDGTFEHLYVMTQSTLLKVPVASCAQHLDCASCLAHRDPYCGWCVLLGRCSRRSECSRGQGPEQWLWSFQPELGCLQ
notes: human Plexin-B1, sema and PSI1 domains; also called hPlexin-B1; source: Expi293F, secreted, purified (Excel HisTrap, Superdex 200)
Regarding B8, the binding result with VHH15-Fc [8] and in the assay with VHH14-Fc [9] was “no binding” each time.

B9: VHH13 (VHH)
VHH: QVQLQESGGGLVQAGGSLRLSCVASGFTFSSYAMGWYRRTPGNQQQLVATVSSSGTTYYGDSVKGRFTISRDNAKKTVYLQMNSLKPEDTAVYYCWRIGYWGQGTQVTVSA
B9: in assay [6], the binding result is recorded as “binds”.

These data come from paper PMC10206189, “Nanobody inhibitors of Plexin-B1 identify allostery in plexin–semaphorin interactions and signaling” (The Journal of Biological Chemistry, 2023).
